In patent US20230192897A1 (NUMAB THERAPEUTICS, published 2023):

T1: mouse CD137-Fc chimeric protein (mouse, UniProt P20334 24-187, limits assumed)
T1 sequence (looked up): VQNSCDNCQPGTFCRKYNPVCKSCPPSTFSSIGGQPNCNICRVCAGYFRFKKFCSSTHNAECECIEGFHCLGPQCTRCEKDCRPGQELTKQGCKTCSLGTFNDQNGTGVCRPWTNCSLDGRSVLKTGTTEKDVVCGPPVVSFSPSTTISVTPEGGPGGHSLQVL


Legend:
[1] = molecular target: T2, CD137 on Jurkat NFkB reporter cells (human, UniProt Q07011 24-255); test: cell-based or functional assay
[2] = molecular target: human PDL1 on cells (human, UniProt Q9NZQ7 19-290); test: cell-based or functional assay
[3] = molecular target: T3, Fc tagged human PDL1 (human, UniProt Q9NZQ7 19-239); test: SPR
T3 construct: Bought (Sino Biological, cat. 10084-H02H); captured on the SPR chip; also called PDL1-Fc chimeric protein
Procedure: (§1) Affinity to PDL1 of the different species was determined by SPR measurements using a Biacore T200 device (GE Healthcare). An antibody specific for the Fc region of human IgGs was immobilized on a sensor chip (CM5 sensor chip, GE Healthcare) by amine-coupling. For all formats, with the exception of the Fc containing Morrison formats, PDL1-Fc chimeric protein from different species were captured by the immobilized antibody.
(§2) Three-fold serial dilutions of the molecules specific for PDL1 (0.12-90 nM) were injected into the flow cells for three minutes and dissociation was monitored for 10 minutes. After each injection cycle, surfaces were regenerated with one injection of a 3 M MgCl₂ solution. The apparent dissociation (kd) and association (kₐ) rate constants and the apparent dissociation equilibrium constant (KD) were calculated using one-to-one Langmuir binding model. Affinity to CD137 of the different species was determined using the identical setup as for PDL1 with the exception that CD137-Fc chimeric protein from different species were captured by the immobilized antibody.

[4] = molecular target: T4, Fc tagged human CD137 (human, UniProt Q07011 24-186); test: SPR
T4 construct: also called CD137-Fc chimeric protein
Procedure: as §1, §2

[5] = molecular target: T2, CD137 on Jurkat NFkB reporter cells; test: cell-based or functional assay; remark: listed apart in the source
[6] = molecular target: T5, biotinylated human PDL1 (human, UniProt Q9NZQ7 19-238, limits assumed, biotinylated); test: competition ELISA PD-1/PDL1
T5 construct: also called biotinylated PDL1
Procedure: (§3) Plates were blocked for 1 hour at room temperature by adding 300 μl of PBS with i%BSA and 0.2% tween (dilution buffer) to each well. Inhibitors were serially diluted in 3-fold steps to final concentrations ranging from 300 to 0.005 ng/ml in dilution buffer containing 1 ng/ml biotinylated human PDL1. The mixtures were pre-incubated for 1 hour at room temperature under gentle agitation on a rotating mixer (21 rpm) and added to the microplates after 3 wash cycles with 450 μl wash buffer per well. Plates were incubated for 1.5 hours at room temperature under gentle agitation, then 10 ng/ml streptavidin-polyHRP40 was added to each microplate well after three washes with 450 μl of wash buffer per well. After 1 h incubation at RT, plates were washed three times with 450 μl wash buffer and TMB substrate solution was added. The enzymatic reaction was stopped after 6 minutes by addition of 1 M HCl and absorbance was measured at 450 nm using 690 nm as a reference wavelength. For calculation of IC₅₀ values, a four-parameter logistic (4PL) curve fit was performed in Graph Pad Prism using reference subtracted values.

[7] = molecular target: T5, biotinylated human PDL1; test: competition ELISA B7.1/PDL1
Procedure: as §3, with “1% BSA” for “i%BSA”, “Inhibitors were serially diluted in 3-fold steps to final concentrations ranging from 300 to 0.005 ng/ml in dilution buffer containing 1 ng/ml biotinylated human PDL1.” left out

[8] = molecular target: T1, mouse CD137-Fc chimeric protein; test: SPR
Procedure: as §1, §2

| Binder | IC50 (ng/ml) (EC50 in Table 16C), NFkB reporter, HCC827 + IFNg, 24 h, +HSA [1] [ng/mL] | rel. IC50 (PRO1186/test), 24 h [1] [fold] | IC50 (ng/ml), NF-AT potency assay, +HSA [2] [ng/mL] | rel. IC50 (avelumab/test), +HSA [2] [fold] | koff [3] [s⁻¹] | kon [3] [M⁻¹ s⁻¹] | Kd [4] [nM] | koff [4] [s⁻¹] | kon [4] [M⁻¹ s⁻¹] | Area under the curve (calculated using PRO885 normalized data), first line (6 h by the order of the upper part) [5] | Area under the curve (calculated using PRO885 normalized data), second line (24 h by the order of the upper part) [5] | EC50 [ng/ml], NF-kB reporter, HCC827 + IFNg, +HSA, 6 h [5] [ng/mL] | IC10/EC90 ratio, first line (6 h by the order of the upper part) [5] | IC10/EC90 ratio, second line (24 h by the order of the upper part) [5] | Maximum NF-kB activation (rel. to PRO1186) [%], first line (6 h by the order of the upper part) [5] [%] | Maximum NF-kB activation (rel. to PRO1186) [%], second line (24 h by the order of the upper part) [5] [%] | rel. Area under the curve (AUCsample/AUCPRO1186), first line (6 h by the order of the upper part) [5] [fold] | rel. Area under the curve (AUCsample/AUCPRO1186), second line (24 h by the order of the upper part) [5] [fold] | rel. EC50 (EC50, PRO1186/EC50, sample), NF-kB reporter, 6 h [5] [fold] | rel. EC50 (EC50, PRO1186/EC50, sample), NF-kB reporter, 24 h [5] [fold] | further results |
| --- | --- | --- | --- | --- | --- | --- | --- | --- | --- | --- | --- | --- | --- | --- | --- | --- | --- | --- | --- | --- | --- |
| PRO1432 (other, trispecific scDb-scFv; also called 33-03-G02 sc18 scDb-i/38-02-A04 sc13 scDb-o/19-01-H04 sc03 scFv) DIQMTQSPSSLSASVGDRVTITCQASQSINNVLAWYQQKPGKAPKLLIYRASTLASGVPSRFSGSGSGTDFTLTISSLQPEDFATYYCQSSYGNYGDFGCGTKVTVLGGGGGSQVQLQESGPGLVKPSETLSLTCKASGFSFSSGYDMCWVRQPPGKGLEWIACVVAGSVDITYYASWAKGRVTISKDSSKNQVSLKLSSVTAADTAVYYCARKDAYSDAFNLWGQGTLVTVSSGGGGSGGGGSGGGGSGGGGSIQMTQSPSSLSASVGDRVTITCQASQSINDYLAWYQQKPGKAPKLLIYKASTLASGVPSRFSGSGSGTDFTLTISSLQPEDFATYYCQQGYIITDIDNVFGTGTKVTVLGGGGGSEVQLVESGGGLVQPGGSLRLSCAASGFSFSNSYWICWVRQAPGKCLEWIGCTFVGSSDSTYYANWAKGRFTISRDNSKNTVYLQMNSLRAEDTAVYYCARHPSDAVYGYANNLWGQGTLVTVSSGGGGSGGGGSIQMTQSPSSLSASVGDRVTITCQSSESVYSNNQLSWYQQKPGQPPKLLIYDASDLASGVPSRFSGSGSGTDFTLTISSLQPEDFATYYCAGGFSSSSDTAFGGGTKLTVLGGGGGSGGGGSGGGGSGGGGSEVQLVESGGGLVQPGGSLRLSCAASGFSLSSNAMGWVRQAPGKGLEYIGIISVGGFTYYASWAKGRFTISRDNSKNTVYLQMNSLRAEDTATYFCARDRHGGDSSGAFYLWGQGTLVTVSS | 21.9 | 0.75 | 18.5 | 1.98 | 4.4e-05 | 4.2e+06 | 0.75 | 0.00045 | 600000 | 111 | 150 | 19.4 | 26.8 | 3.57 | 63.4 | 83.8 | 0.59 | 0.81 | 0.67 | 0.75 | rel. IC10/EC90 (ratio of sample/ratio of PRO1186), first line (6 h by the order of the upper part) [5]: 0.36 fold; rel. IC10/EC90 (ratio of sample/ratio of PRO1186), second line (24 h by the order of the upper part) [5]: 0.16 fold; IC50 [6]: 3.26 ng/mL; rel. IC50 (IC50 avelumab/IC50 test) [6]: 0.43 fold; IC50 [7]: 2.83 ng/mL; rel. IC50 (IC50 avelumab/IC50 test) [7]: 0.99 fold |
| PRO1125 (bispecific antibody, scDb; also called 38-02-A04 sc01 scDb-i/33-03-G02 sc02 IF scDb-o) DIQMTQSPSSLSASVGDRVTITCQASQSINDYLAWYQQKPGKSPKLLIYKASTLASGVPSRFSGSGSGTDFTLTISSLQPEDFATYYCQQGYIITDIDNVFGTGTKVTVLGGGGGSQVQLQESGPGLVKPSETLSLTCKVSGFSFSNSYWICWIRQPPGKGLEWIGCTFVGSSDSTYYANWAKGRVTISVDSSKNQFSLKLSSVTAADTAVYYCARHPSDAVYGYANNLWGQGTLVTVSSGGGGSGGGGSGGGGSGGGGSIQMTQSPSSLSASVGDRVTITCQASQSINNVLAWYQQKPGKAPKLLIYRASTLASGVPSRFSGSGSGTDFTLTISSLQPEDFATYYCQSSYGNYGDFGTGTKVTVLGGGGGSQVQLQESGPGLVKPSETLSLTCKVSGFSFSSGYDMCWVRQPPGKGLEWIACVVAGSVDITYYASWAKGRVTISVDSSKNQFSLKLSSVTAADTAVYFCARKDAYSDAFNLWGQGTLVTVSS |  |  |  |  | 0.00011 | 1.7e+06 | 3.7 |  | 200000 |  |  |  |  |  |  |  |  |  |  |  | Kd [8]: 510 nM; koff [8]: 0.27 s⁻¹; Kd [3]: 0.067 nM |
| PRO1481 (other, trispecific scDb-scFv; also called 38-27-A11 sc03 scDb-i/37-20-B03 sc09.1 scDb-o/19-01-H04 sc03 scFv) DIQMTQSPASLSASVGDRVTITCQASQSIGTYLAWYQQKPGKPPKLLIYRAFILASGVPSRFSGSGSGTDFTLTISSLQPEDFATYYCQSNFYSDSTTIGPNAFGTGTKVTVLGGGGGSESQLVESGGGLVQPGGSLRLSCAASGFSFSANYYPCWVRQAPGKGLEWIGCIYGGSSDITYDANWTKGRFTISRDNSKNTVYLQMNSLRAEDTAVYFCARSAWYSGWGGDLWGPGTLVTVSSGGGGSGGGGSGGGGSGGGGSFQLTQSPSSLSASVGDRVTITCQASQSISNRLAWYQQKPGKPPKLLIYSASTLASGVPSRFSGSGSGTDFTLTISSLQPEDFATYYCQSTYYGNDGNAFGTGTKVTVLGGGGGSEVQLVESGGGLVQPGGSLRLSCAASGFSFNSDYWIYWVRQAPGKGLEWIASIYGGSSGNTQYASWAQGRFTISRDNSKNTVYLQMNSLRAEDTAVYFCARGYVDYGGATDLWGQGTLVTVSSGGGGSGGGGSIQMTQSPSSLSASVGDRVTITCQSSESVYSNNQLSWYQQKPGQPPKLLIYDASDLASGVPSRFSGSGSGTDFTLTISSLQPEDFATYYCAGGFSSSSDTAFGGGTKLTVLGGGGGSGGGGSGGGGSGGGGSEVQLVESGGGLVQPGGSLRLSCAASGFSLSSNAMGWVRQAPGKGLEYIGIISVGGFTYYASWAKGRFTISRDNSKNTVYLQMNSLRAEDTATYFCARDRHGGDSSGAFYLWGQGTLVTVSS | 5.51 | 0.58 | 40.6 | 0.92 |  | 4.7e+06 | 0.33 | 0.0002 | 630000 | 292 | 254 | 7.22 | 23.7 | 41 | 147 | 117 | 1.37 | 1 | 1.04 | 0.58 | Kd [3]: 0.0092 nM; rel. IC10/EC90 (ratio of sample/ratio of PRO1186), first line (6 h by the order of the upper part) [5]: 1.71 fold; rel. IC10/EC90 (ratio of sample/ratio of PRO1186), second line (24 h by the order of the upper part) [5]: 5.72 fold; IC50 [6]: 2.69 ng/mL; rel. IC50 (IC50 avelumab/IC50 test) [6]: 0.84 fold; IC50 [7]: 10.1 ng/mL; rel. IC50 (IC50 avelumab/IC50 test) [7]: 1.45 fold |
